Experimental data from patent US20140135482A1 (Hoffmann-La Roche, published 2014).

B1: <ErbB3-c-Met> Her3/Met_6C (bispecific antibody, human IgG1, kappa)
heavy 1: not shown
heavy 2: not shown
light: DIQMTQTTSSLSASLGDRVTISCRARQDISNYLNWYQRKPDGTVKLLIYYTSRLHSGVPSRFSGSGSGTDYSLTISNLEQEDIATYFCQQGNTFPWTFGGGTKLEIKRTVAAPSVFIFPPSDEQLKSGTASVVCLLNNFYPREAKVQWKVDNALQSGNSQESVTEQDSKDSTYSLSSTLTLSKADYEKHKVYACEVTHQGLSSPVTKSFNRGEC
B2: <ErbB3-c-Met> Her3/Met_KHSS (bispecific antibody, human IgG1, kappa)
heavy 1: not shown
heavy 2: not shown
light: B1 light
notes: also called Her3/c-Met KHSS
B3: <ErbB3-c-Met> Her3/Met_SSKH (bispecific antibody, human IgG1, kappa)
heavy 1: not shown
heavy 2: not shown
light: B1 light
B4: <ErbB3-c-Met> Her3/Me_scFvSSKH (bispecific antibody, human IgG1, kappa)
heavy 1: not shown
heavy 2: not shown
light: B1 light
B5: MH_TvAB21 (bispecific antibody)
chain 1: not shown
chain 2: not shown
chain 3: DIVMTQSPSSLTVTAGENVTMSCKSSQSLLNSGNQKNYLTWYQQKPGQPPKLLIYWASTRESGVPNRFTGSGSGTDFTLAISSVQAEDLSIYYCQSDYSYPYTFGQGTKLEIKRTVAAPSVFIFPPSDEQLKSGTASVVCLLNNFYPREAKVQWKVDNALQSGNSQESVTEQDSKDSTYSLSSTLTLSKADYEKHKVYACEVTHQGLSSPVTKSFNRGEC
B6: MH_TvAB22 (bispecific antibody)
chain 1: not shown
chain 2: not shown
chain 3: B5 chain 3
B7: <ErbB3> HER3 clone 29 (antibody, human IgG1, kappa, V domains shown)
VH: DVQLQESGPGLVKPSQSLSLTCSVTGYSITSAYYWNWIRQFPGNKLEWMGYISYGGSNSYAPSLKNRFSITRDTSKNQFFLKLNSVTTEDTATYYCARESDYAYFDYWGQGTTLTVSS
VL: DIQMTQTTSSLSASLGDRVTISCRARQDISNYLNWYQRKPDGTVKLLIYYTSRLHSGVPSRFSGSGSGTDYSLTISNLEQEDIATYFCQQGNTFPWTFGGGTKLEIKR
notes: Monospecific bivalent parent antibody (chimeric)
B8: <ErbB3> Mab 205 (chimeric) (antibody, V domains shown)
VH: QGQMQQSGAELVKPGASVKLSCKTSGFTFRSSYISWLKQKPRQSLEWIAWIYAGTGSPSYNQKFTGKAQLTVDTSSSTAYMQLSSLTSEDSAIYYCARHRDYYSNSLTYWGQGTLVTVSA
VL: DIVMTQSPSSLTVTAGENVTMSCKSSQSLLNSGNQKNYLTWYQQKPGQPPKLLIYWASTRESGVPNRFTGSGSGTDFTLAISSVQAEDLSIYYCQSDYSYPYTFGQGTKLEIK
B9: <c-Met> Mab 5D5 (antibody, human IgG1, kappa, V domains shown)
VH: EVQLVESGGGLVQPGGSLRLSCAASGYTFTSYWLHWVRQAPGKGLEWVGMIDPSNSDTRFNPNFKDRFTISADTSKNTAYLQMNSLRAEDTAVYYCATYRSYVTPLDYWGQGTLVTVSS
VL: DIQMTQSPSSLSASVGDRVTITCKSSQSLLYTSSQKNYLAWYQQKPGKAPKLLIYWASTRESGVPSRFSGSGSGTDFTLTISSLQPEDFATYYCQQYYAYPWTFGQGTKVEIKR
notes: Monospecific, bivalent c-Met parent antibody (humanized); also called c-Met 5D5; bivalent 5D5

Assays:
[1] = molecular target: T1, human ErbB-3 (on cells) (human, UniProt P21860 20-1342); experiment: cell-based or functional assay
[2] = molecular target: T1, human ErbB-3 (on cells); experiment: flow cytometry on A431 cells, dilution series of the antibody, detected with PE-coupled anti-human Fc antibody
Experimental: (§1) A431 were detached and counted. 1.5×10e5 cells were seeded per well of a conical 96-well plate. Cells were spun down (1500 rpm, 4° C., 5 min) and incubated for 30 min on ice in 50 μL of a dilution series of the respective bispecific antibody in PBS with 2% FCS (fetal calf serum). Cells were again spun down and washed once with 200 μL PBS containing 2% FCS followed by a second incubation of 30 min with a phycoerythrin-coupled antibody directed against human Fc which was diluted in PBS containing 2% FCS (Jackson Immunoresearch, 109116098). Cells were spun down washed twice with 200 μL PBS containing 2% FCS, resuspended in BD CellFix solution (BD Biosciences) and incubated for at least 10 min on ice. Mean fluorescence intensity (mfi) of the cells was determined by flow cytometry (FACS Canto, BD). Mfi was determined at least in duplicates of two independent stainings Flow cytometry spectra were further processed using the FlowJo software (TreeStar). Half-maximal binding was determined using XLFit 4.0 (IDBS) and the dose response one site model 205.
(§2) The binding properties of the bispecific antibodies to their respective receptor on the cell surface was analyzed on A431 cancer cells in a flow cytometry based assay. Cells were incubated with the mono- or bispecific primary antibodies and binding of these antibodies to their cognate receptors was detected with a secondary antibody coupled to a fluorophor binding specifically to the Fc of the primary antibody. The mean fluorescence intensity of a dilution series of the primary antibodies was plotted against the concentration of the antibody to obtain a sigmoidal binding curve.

[3] = molecular target: T1, human ErbB-3 (on cells); experiment: flow cytometry on A431 cells, dilution series of the bispecific antibody in the presence of Fab 5D5 (its concentration is not given on the sheet), detected with PE-coupled anti-human Fc antibody
[4] = molecular target: T2, recombinant c-Met ectodomain (ECD) (human, UniProt P08581 25-932); experiment: SPR (Biacore T100), antibody captured by anti-Fc gamma antibody, ECD in solution, 25 C
T2 construct: the whole entry for human c-Met is named; also called c-Met ECD

[5] = molecular target: T3, recombinant Her3 ectodomain (ECD) (human, UniProt P21860 20-643); experiment: as above
T3 construct: the whole entry for human ErbB-3 is named; also called human HER3 ECD

[6] = molecular target: T4, human c-Met (on cells) (human, UniProt P08581 25-1390); experiment: flow cytometry on A431 cells, dilution series of the antibody, detected with PE-coupled anti-human Fc antibody
T4 construct: Endogenous receptor on human cell lines (A431, A549, HT29, DU145, HUVEC); also called c-Met receptor
Experimental: as §1, §2

Binder | % ErbB3 receptor on A431 cell surface measured after 2 h [1] [%] | % Internalization of ErbB3 after 2 h on A431 cells [1] [%] | further results
B1 | 94 | 6 | 
B2 |  |  | binding result [2]: binds
B3 | 89 | 11 | 
B4 |  |  | EC50 (read off the curve) [3]: ~0.06 µg/mL
B5 |  |  | Kd [4]: 0.8 nM; Kd [5]: 1.8 nM
B6 |  |  | Kd [4]: 0.9 nM; Kd [5]: 2.1 nM
B7 | 44 | 54 | EC50 (read off the curve) [2]: ~0.03 µg/mL
B8 | 60 | 40 | 
B9 |  |  | EC50 (read off the curve) [6]: ~0.06 µg/mL
